From patent publication US9018171B2, “Uses of an immunomodulatory protein (GMI) from Ganoderma microsporum” (Mycomagic Biotechnology Co., Ltd., priority 2010, dated 2015)
“Also recorded” adds a separate entry of the source. Like-named read-outs stand apart in the source and are kept apart here.

Assays:
KM12 = assay: NCI60 in vitro screening, Colon Cancer; format: cell-based
MDA-MB-231/ATCC = assay: NCI60 in vitro screening, Breast Cancer; format: cell-based
HS 578T = assay: NCI60 in vitro screening, Breast Cancer; format: cell-based
CAKI-1 = assay: NCI60 in vitro screening, Renal Cancer; format: cell-based
UO-31 = assay: NCI60 in vitro screening, Renal Cancer; format: cell-based
UACC-62 = assay: NCI60 in vitro screening, Melanoma; format: cell-based
786-0 = assay: NCI60 in vitro screening, Renal Cancer; format: cell-based
NCI-H460 = format: cell-based
NCI-H226 = format: cell-based
Rac1 = Rac1 and Cdc42 activity assay (pull-down); format: cell-based, human; settings: A549 cells, GMI 4, 16 μg/ml 24 h, 10 ng/mL EGF 3 min
Experimental: (§1) A549 cells were seeded onto 100 mm plates and cultured to around 80% confluence. The cells were then treated with various doses of GMI (4, 16 μg/ml). […] A549 cells were pretreated with various concentrations of GMI for 24 h before being stimulated with 10 ng/mL EGF for 3 min. After that, cells were washed with cold PBS and lysated on the dish in RIPA buffer. Active GTP-bound Rac1 or Cdc42 was pulled down using the GST-PBD fusion protein of PAK1 immobilized on glutathione beads and active Rac1 and Cdc42 were detected with anti-Rac1 and anti-Cdc42 antibodies.
(§2) Active Rac1 and Cdc42 were determined by pull-down assay (Binker et al., 2009, Biochem Biophys Res Commun, 379, 445-450). Serum-starved A549 cells were or were not stimulated for 3 min with EGF and then collected in 800 μl of ice-cold lysis-buffer. Lysates were centrifuged to remove cellular debris. From each supernatant, 5 μl were taken out to measure protein content using Protein Assay Kit (Bio-Rad, Hercules, Calif.). Twenty μl were removed to determine total Rac1 in total lysate, and the remaining volume was used for the pull-down assay. Lysates containing equal amounts of proteins were then mixed with 15 μg of GST-PAK-PBD-beads (Pierce). Samples for total Rac1 and Cdc42 in total lysate and the pelleted beads were diluted in Laemmli sample-buffer and boiled. The proteins were separated using SDS-PAGE (12% gel). […]

Cdc42 = assay: Rac1 and Cdc42 activity assay (pull-down); format: cell-based, human; settings: A549 cells, GMI 4, 16 μg/ml 24 h, 10 ng/mL EGF 3 min
Experimental: as §1, §2

CCRF-CEM = assay: NCI60 in vitro screening, Leukemia; format: cell-based
A549/ATCC = format: cell-based
IGROV1 = assay: NCI60 in vitro screening, Ovarian Cancer; format: cell-based

B1: GMI: immunomodulatory protein from Ganoderma microsporum, amino acid sequence SEQ ID NO: 3, manufactured by Mycomagic Biotechnology Co., Ltd. (protein, listed as Ganoderma microsporum)
chain: MSDTALIFTLAWNVKQLAFDYTPNWGRGRPSSFIDTVTFPTVLTDKAYTYRVVVSGKDLGVRPSYAVESDGSQKINFLEYNSGYGIADTNTIQVYVIDPDTGNNFIVAQWN
KM12; KM12
  TGI: >1.25E2
KM12; KM12, Log10 Concentration 0.1
  Percent Growth: 104%
KM12; KM12, Log10 Concentration 1.1
  Percent Growth: 89%
KM12; KM12, Log10 Concentration 2.1
  Percent Growth: 43%
KM12; KM12, Log10 Concentration −0.9
  Percent Growth: 96%
KM12; KM12, Log10 Concentration −1.9
  Percent Growth: 100%
KM12; KM12, one dose
  Growth Percent: 62.96%
KM12; KM12, in µg/mL
  GI50: 8.92E1
MDA-MB-231/ATCC
  TGI: 3.65E1
MDA-MB-231/ATCC; Log10 Concentration 0.1
  Percent Growth: 93%
MDA-MB-231/ATCC; Log10 Concentration 1.1
  Percent Growth: 41%
MDA-MB-231/ATCC; Log10 Concentration 2.1
  Percent Growth: −47%
MDA-MB-231/ATCC; Log10 Concentration −0.9
  Percent Growth: 96%
MDA-MB-231/ATCC; Log10 Concentration −1.9
  Percent Growth: 103%
MDA-MB-231/ATCC; in µg/mL
  GI50: 8.34E0
MDA-MB-231/ATCC; one dose
  Growth Percent: 23.69%
HS 578T
  TGI: >1.25E2
HS 578T; Log10 Concentration 0.1
  Percent Growth: 108%
HS 578T; Log10 Concentration 1.1
  Percent Growth: 96%
HS 578T; Log10 Concentration 2.1
  Percent Growth: 64%
HS 578T; Log10 Concentration −0.9
  Percent Growth: 106%
HS 578T; Log10 Concentration −1.9
  Percent Growth: 104%
CAKI-1; CAKI-1
  TGI: 7.29E1
CAKI-1; CAKI-1, Log10 Concentration 0.1
  Percent Growth: 98%
CAKI-1; CAKI-1, Log10 Concentration 1.1
  Percent Growth: 47%
CAKI-1; CAKI-1, Log10 Concentration 2.1
  Percent Growth: −14%
CAKI-1; CAKI-1, Log10 Concentration −0.9
  Percent Growth: 100%
CAKI-1; CAKI-1, Log10 Concentration −1.9
  Percent Growth: 100%
CAKI-1; CAKI-1, one dose
  Growth Percent: 96.04%
CAKI-1; CAKI-1, in µg/mL
  GI50: 1.08E1
UO-31; UO-31
  TGI: 2.65E1
UO-31; UO-31, Log10 Concentration 0.1
  Percent Growth: 119%
UO-31; UO-31, Log10 Concentration 1.1
  Percent Growth: 38%
UO-31; UO-31, Log10 Concentration 2.1
  Percent Growth: −77%
UO-31; UO-31, Log10 Concentration −0.9
  Percent Growth: 102%
UO-31; UO-31, Log10 Concentration −1.9
  Percent Growth: 97%
UO-31; UO-31, one dose
  Growth Percent: 14.01%
UO-31; UO-31, in µg/mL
  GI50: 8.79E0
  LC50: 7.22E1
UACC-62; UACC-62
  TGI: >1.25E2
UACC-62; UACC-62, Log10 Concentration 0.1
  Percent Growth: 99%
UACC-62; UACC-62, Log10 Concentration 1.1
  Percent Growth: 106%
UACC-62; UACC-62, Log10 Concentration 2.1
  Percent Growth: 68%
UACC-62; UACC-62, Log10 Concentration −0.9
  Percent Growth: 101%
UACC-62; UACC-62, Log10 Concentration −1.9
  Percent Growth: 105%
UACC-62; UACC-62, one dose
  Growth Percent: 115.96%
786-0; 786-0
  TGI: >1.25E2
786-0; 786-0, Log10 Concentration 0.1
  Percent Growth: 111%
786-0; 786-0, Log10 Concentration 1.1
  Percent Growth: 73%
786-0; 786-0, Log10 Concentration 2.1
  Percent Growth: 4%
786-0; 786-0, Log10 Concentration −0.9
  Percent Growth: 99%
786-0; 786-0, Log10 Concentration −1.9
  Percent Growth: 100%
786-0; 786-0, one dose
  Growth Percent: 74.75%
786-0; 786-0, in µg/mL
  GI50: 2.70E1
NCI-H460; NCI-H460
  TGI: >1.25E2
NCI-H460; NCI-H460, Log10 Concentration 0.1
  Percent Growth: 100%
NCI-H460; NCI-H460, Log10 Concentration 1.1
  Percent Growth: 91%
NCI-H460; NCI-H460, Log10 Concentration 2.1
  Percent Growth: 33%
NCI-H460; NCI-H460, Log10 Concentration −0.9
  Percent Growth: 104%
NCI-H460; NCI-H460, Log10 Concentration −1.9
  Percent Growth: 103%
NCI-H460; NCI-H460, one dose
  Growth Percent: 86.38%
NCI-H460; NCI-H460, in µg/mL
  GI50: 6.47E1
NCI-H226; NCI-H226
  TGI: >1.25E2
NCI-H226; NCI-H226, Log10 Concentration 0.1
  Percent Growth: 101%
NCI-H226; NCI-H226, Log10 Concentration 1.1
  Percent Growth: 65%
NCI-H226; NCI-H226, Log10 Concentration 2.1
  Percent Growth: 23%
NCI-H226; NCI-H226, Log10 Concentration −0.9
  Percent Growth: 99%
NCI-H226; NCI-H226, Log10 Concentration −1.9
  Percent Growth: 100%
NCI-H226; NCI-H226, one dose
  Growth Percent: 83.77%
NCI-H226; NCI-H226, in µg/mL
  GI50: 2.90E1
Rac1
  EGF-promoted Rac1 activity: little effect on Rac1; also recorded: little reduction in Rac1 activity
Cdc42
  EGF-promoted Cdc42 activity: inhibits Cdc42 activation; also recorded: reduced EGF-promoted Cdc42 activity in a dose-dependent manner
CCRF-CEM
  TGI: >1.25E2
CCRF-CEM; Log10 Concentration 0.1
  Percent Growth: 97%
CCRF-CEM; Log10 Concentration 1.1
  Percent Growth: 58%
CCRF-CEM; Log10 Concentration 2.1
  Percent Growth: 18%
CCRF-CEM; Log10 Concentration −0.9
  Percent Growth: 101%
CCRF-CEM; Log10 Concentration −1.9
  Percent Growth: 104%
CCRF-CEM; in µg/mL
  GI50: 2.02E1
A549/ATCC
  TGI: >1.25E2
A549/ATCC; Log10 Concentration 0.1
  Percent Growth: 94%
A549/ATCC; Log10 Concentration 1.1
  Percent Growth: 51%
A549/ATCC; Log10 Concentration 2.1
  Percent Growth: 8%
A549/ATCC; Log10 Concentration −0.9
  Percent Growth: 99%
A549/ATCC; Log10 Concentration −1.9
  Percent Growth: 102%
A549/ATCC; in µg/mL
  GI50: 1.31E1
A549/ATCC; one dose
  Growth Percent: 44.29%
IGROV1; IGROV1
  TGI: >1.25E2
IGROV1; IGROV1, Log10 Concentration 0.1
  Percent Growth: 117%
IGROV1; IGROV1, Log10 Concentration 1.1
  Percent Growth: 62%
IGROV1; IGROV1, Log10 Concentration 2.1
  Percent Growth: 30%
IGROV1; IGROV1, Log10 Concentration −0.9
  Percent Growth: 98%
IGROV1; IGROV1, Log10 Concentration −1.9
  Percent Growth: 103%
IGROV1; IGROV1, one dose
  Growth Percent: 30.07%
IGROV1; IGROV1, in µg/mL
  GI50: 2.94E1
